{"source": "patent US20230374144A1", "about": "(STAIDSON BEIJING BIOPHARMACEUTICAL, published 2023)", "key": {"human IL-4Rα on cells [1]": {"target": "T1, human IL-4Rα on cells (human, UniProt P24394 26-825)", "experiment": "cell-based or functional assay"}, "IL-4R with mouse Fc-tag": {"target": "T2, IL-4R with mouse Fc-tag (human, UniProt P24394 26-232)", "T2 construct": "not shown: mouse Fc-tag", "experiment": "competitive ELISA: antibody dilutions with 0.5 µg/mL IL-4R-mouse Fc on plate-captured biotinylated IL-4, anti-mouse-Fc-HRP", "method": "Competitive ELISA: The second assay was designed to identify the anti-IL-4Rα antibodies that were capable of inhibiting the binding of hIL-4 to hIL-4Rα, as measured by competitive ELISA. Briefly, a 96-well plate was coated with 100 μL, 2.5 μg/mL SA (Streptavidin) solution, and incubated overnight at 4° C., followed by washed with TBST. Biotinylated IL-4 with the final concentration of 2 μg/mL was added into the plate and incubated at 37° C. for 1 hour. Then the plate was washed with TBST. The anti-IL-4Rα antibody samples were first diluted to 10 μg/mL, and 1004, of the sample was added to the first row of wells. 10 μg/mL anti-IL-4Rα antibody samples were then serially diluted at a 1:2 ratio and added to each of the remaining rows of wells. 504 of 0.5 μg/mL IL-4R with mouse Fc-tag was added to each well. After incubating for 1 hour at 37° C., the wells were washed with TBST 6 times. 100 µL of anti-mouse-Fc-HRP (1:10,000) was then added to each well and incubated for 1 hour at 37° C. The wells were washed with TBST 6 times before adding 1004/well of TMB, and incubated for 5-10 minutes at 37° C. 2M H₂SO₄ was used to stop the reaction. The ELISA results (OD450) were read, and the binding curves were generated by GraphPad Prism 5 software (GraphPad Software). Reference antibody Dupilumab (Regeneron, anti-IL-4Rα antibody) and AMG317 (Amgen, anti-IL-4Rα antibody) were used as positive controls, Human IgG4, kappa Isotype Control (Cat #HG4K, Sino Biological Inc.) was used as negative control, abbreviated as Human IgG4 in FIG. 1."}, "human IL-4Rα on cells [2]": {"target": "T1, human IL-4Rα on cells", "experiment": "cell-based or functional assay", "remark": "listed apart in the source"}, "human IL-4Rα on cells [3]": {"target": "T1, human IL-4Rα on cells", "experiment": "cell-based or functional assay", "remark": "listed apart in the source"}, "human IL-4Rα on cells [4]": {"target": "T1, human IL-4Rα on cells", "experiment": "cell-based or functional assay", "remark": "listed apart in the source"}, "human IL-4Rα on cells [5]": {"target": "T1, human IL-4Rα on cells", "experiment": "cell-based or functional assay", "remark": "listed apart in the source"}, "human IL-4Rα on cells [6]": {"target": "T1, human IL-4Rα on cells", "experiment": "cell-based or functional assay", "remark": "listed apart in the source"}, "human IL-4Rα on cells [7]": {"target": "T1, human IL-4Rα on cells", "experiment": "cell-based or functional assay", "remark": "listed apart in the source"}, "human IL-4Rα on cells [8]": {"target": "T1, human IL-4Rα on cells", "experiment": "cell-based or functional assay", "remark": "listed apart in the source"}, "human IL-4Rα on cells [9]": {"target": "T1, human IL-4Rα on cells", "experiment": "cell-based or functional assay", "remark": "listed apart in the source"}, "[10]": {"target": "T3, recombinant human IL-4Rα (extracellular domain, tagged) (human, UniProt P24394 26-232)", "T3 construct": "it is written second here only for want of that; also called hIL-4Rα; not shown: His-tag or other conventionally used tag", "experiment": "SPR, Biacore T200; antibody (human IgG4) on the sensor chip, human IL-4Rα at 0.625-12.5 nM", "method": "The binding affinity of the anti-IL-4Rα antibodies (reformatted as human IgG4) to human IL-4Rα was characterized using Biacore T200 (GE). The full-length anti-IL-4Rα antibodies were stabilized on sensor chip CMS. The affinities for human IL-4Rα at various concentrations were measured. […] Using the SPR technology, the association and dissociation rates were measured, and binding affinity was determined."}}, "note": "Where two headings read alike, the source gives them in different places."}
{"molecule": "AMG317 (antibody)", "values": [{"measurement": "IC50(nM), neutralization of hIL-13 (4 ng/ml), HEK-Blue IL-4/IL-13 STAT6-SEAP reporter cells", "setting": "human IL-4Rα on cells [1]", "result": 0.649, "unit": "nM"}, {"measurement": "IC50", "setting": "IL-4R with mouse Fc-tag", "result": 0.0891, "unit": "µg/mL"}]}
{"molecule": "C27-7-33 (antibody, human IgG4, V domains shown) VH: EVQLLESGGGLVQPGGSLRLSCAASGFTLSSYAMHWVRQAPGKGLEYVSGISPSGVSTYYANSVKGRFTISRDNPKNTLFLQMSSLRAEDTAVYYCVRVKVKYRGGMDVWGQGTTVTVSS VL: EIVLTQSPGTLSLSPGERATLSCRASQGISSAYLAWYQQKPGQAPRLLIYGTSRRATGIPDRFSGSGSGTDFTLTISRLEPEDFAVYYCQLYGATSVTFGQGTKLEIK", "values": [{"measurement": "IC50(nM), neutralization of hIL-4 (1.2 ng/ml), HEK-Blue IL-4/IL-13 STAT6-SEAP reporter cells", "setting": "human IL-4Rα on cells [2]", "result": 0.0541, "unit": "nM"}, {"measurement": "IC50(nM), neutralization of hIL-13 (4 ng/ml), HEK-Blue IL-4/IL-13 STAT6-SEAP reporter cells", "setting": "human IL-4Rα on cells [3]", "result": 0.0343, "unit": "nM"}, {"measurement": "IC50(nM), inhibition of IL-4 (2 ng/mL) dependent TF-1 cell proliferation", "setting": "human IL-4Rα on cells [4]", "result": 0.0311, "unit": "nM"}, {"measurement": "IC50(nM), inhibition of IL-13 (10 ng/mL) dependent TF-1 cell proliferation", "setting": "human IL-4Rα on cells [5]", "result": 0.0902, "unit": "nM"}, {"measurement": "IC50(nM), inhibition of TARC release in human PBMCs induced by hIL-4 (32 ng/mL)", "setting": "human IL-4Rα on cells [6]", "result": 0.916, "unit": "nM"}, {"measurement": "IC50(nM), inhibition of TARC release in human PBMCs induced by hIL-13 (200 ng/mL)", "setting": "human IL-4Rα on cells [7]", "result": 0.0576, "unit": "nM"}, {"measurement": "IC50(nM), inhibition of hIL-4 (1 ng/mL) dependent CD23 upregulation on B cells in human PBMCs", "setting": "human IL-4Rα on cells [8]", "result": 0.0303, "unit": "nM"}, {"measurement": "IC50(nM), inhibition of hIL-13 (20 ng/mL) dependent CD23 upregulation on B cells in human PBMCs", "setting": "human IL-4Rα on cells [9]", "result": 0.179, "unit": "nM"}, {"measurement": "Kd", "setting": "[10]", "result": 1.01, "unit": "nM"}, {"measurement": "koff", "setting": "[10]", "result": 0.000134, "unit": "s⁻¹"}, {"measurement": "kon", "setting": "[10]", "result": 134000, "unit": "M⁻¹ s⁻¹"}, {"measurement": "IC50", "setting": "IL-4R with mouse Fc-tag", "result": 0.0582, "unit": "µg/mL"}]}
{"molecule": "C27-47-56 (antibody, human IgG4, V domains shown) VH: EVQLLESGGGLVQPGGSLRLSCAASGFTLSSYAMHWVRQAPGKGLEYVSGISPTGTSTYYANSVKGRFTISRDNPKNTLFLQMSSLRAEDTAVYYCVRVKGAYRGGMDVWGQGTTVTVSS VL: EIVLTQSPGTLSLSPGERATLSCRASQSVSSAYLAWYQQKPGQAPRLLIYGTSRRATGIPDRFSGSGSGTDFTLTISRLEPEDFAVYYCQLYGASSVTFGQGTKLEIK", "values": [{"measurement": "IC50(nM), neutralization of hIL-4 (1.2 ng/ml), HEK-Blue IL-4/IL-13 STAT6-SEAP reporter cells", "setting": "human IL-4Rα on cells [2]", "result": 0.103, "unit": "nM"}, {"measurement": "IC50(nM), neutralization of hIL-13 (4 ng/ml), HEK-Blue IL-4/IL-13 STAT6-SEAP reporter cells", "setting": "human IL-4Rα on cells [3]", "result": 0.0966, "unit": "nM"}, {"measurement": "IC50(nM), inhibition of IL-4 (2 ng/mL) dependent TF-1 cell proliferation", "setting": "human IL-4Rα on cells [4]", "result": 0.0509, "unit": "nM"}, {"measurement": "IC50(nM), inhibition of IL-13 (10 ng/mL) dependent TF-1 cell proliferation", "setting": "human IL-4Rα on cells [5]", "result": 0.0849, "unit": "nM"}, {"measurement": "IC50(nM), inhibition of TARC release in human PBMCs induced by hIL-4 (32 ng/mL)", "setting": "human IL-4Rα on cells [6]", "result": 1.2, "unit": "nM"}, {"measurement": "IC50(nM), inhibition of TARC release in human PBMCs induced by hIL-13 (200 ng/mL)", "setting": "human IL-4Rα on cells [7]", "result": 0.0913, "unit": "nM"}, {"measurement": "IC50(nM), inhibition of hIL-4 (1 ng/mL) dependent CD23 upregulation on B cells in human PBMCs", "setting": "human IL-4Rα on cells [8]", "result": 0.0814, "unit": "nM"}, {"measurement": "IC50(nM), inhibition of hIL-13 (20 ng/mL) dependent CD23 upregulation on B cells in human PBMCs", "setting": "human IL-4Rα on cells [9]", "result": 0.698, "unit": "nM"}, {"measurement": "Kd", "setting": "[10]", "result": 1.82, "unit": "nM"}, {"measurement": "koff", "setting": "[10]", "result": 0.000195, "unit": "s⁻¹"}, {"measurement": "kon", "setting": "[10]", "result": 107000, "unit": "M⁻¹ s⁻¹"}, {"measurement": "IC50", "setting": "IL-4R with mouse Fc-tag", "result": 0.0651, "unit": "µg/mL"}]}
{"molecule": "Dupilumab (antibody, V domains shown) VH: EVQLVESGGGLEQPGGSLRLSCAGSGFTFRDYAMTWVRQAPGKGLEWVSSISGSGGNTYYADSVKGRFTISRDNSKNTLYLQMNSLRAEDTAVYYCAKDRLSITIRPRYYGLDVWGQGTTVTVSS VL: DIVMTQSPLSLPVTPGEPASISCRSSQSLLYSIGYNYLDWYLQKSGQSPQLLIYLGSNRASGVPDRFSGSGSGTDFTLKISRVEAEDVGFYYCMQALQTPYTFGQGTKLEIKR", "values": [{"measurement": "IC50(nM), neutralization of hIL-4 (1.2 ng/ml), HEK-Blue IL-4/IL-13 STAT6-SEAP reporter cells", "setting": "human IL-4Rα on cells [2]", "result": 0.165, "unit": "nM"}, {"measurement": "IC50(nM), neutralization of hIL-13 (4 ng/ml), HEK-Blue IL-4/IL-13 STAT6-SEAP reporter cells", "setting": "human IL-4Rα on cells [3]", "result": 0.136, "unit": "nM"}, {"measurement": "IC50(nM), inhibition of IL-4 (2 ng/mL) dependent TF-1 cell proliferation", "setting": "human IL-4Rα on cells [4]", "result": 0.253, "unit": "nM"}, {"measurement": "IC50(nM), inhibition of IL-13 (10 ng/mL) dependent TF-1 cell proliferation", "setting": "human IL-4Rα on cells [5]", "result": 0.301, "unit": "nM"}, {"measurement": "IC50(nM), inhibition of TARC release in human PBMCs induced by hIL-4 (32 ng/mL)", "setting": "human IL-4Rα on cells [6]", "result": 0.63, "unit": "nM"}, {"measurement": "IC50(nM), inhibition of TARC release in human PBMCs induced by hIL-13 (200 ng/mL)", "setting": "human IL-4Rα on cells [7]", "result": 0.0323, "unit": "nM"}, {"measurement": "IC50(nM), inhibition of hIL-4 (1 ng/mL) dependent CD23 upregulation on B cells in human PBMCs", "setting": "human IL-4Rα on cells [8]", "result": 0.119, "unit": "nM"}, {"measurement": "IC50(nM), inhibition of hIL-13 (20 ng/mL) dependent CD23 upregulation on B cells in human PBMCs", "setting": "human IL-4Rα on cells [9]", "result": 2.8, "unit": "nM"}, {"measurement": "IC50", "setting": "IL-4R with mouse Fc-tag", "result": 0.0838, "unit": "µg/mL"}]}
